Experimental data reported in patent US20110158954A1, “METHOD FOR PRODUCING GAMMA DELTA T CELL POPULATION” (priority 2007, published 2011).

B1: H296-H296: modified fibronectin fragment in which two H-296's are connected to each other (SEQ ID NO: 22) (protein)
chain: AIPAPTDLKFTQVTPTSLSAQWTPPNVQLTGYRVRVTPKEKTGPMKEINLAPDSSSVVVSGLMVATKYEVSVYALKDTLTSRPAQGVVTTLENVSPPRRARVTDATETTITISWRTKTETITGFQVDAVPANGQTPIQRTIKPDVRSYTITGLQPGTDYKIYLYTLNDNARSSPVVIDASTAIDAPSNLRFLATTPNSLLVSWQPPRARITGYIIKYEKPGSPPREVVPRPRPGVTEATITGLEPGTEYTIYVIALKNNQKSEPLIGRKKTDELPQLVTLPHPNLHGPEILDVPSTAMAIPAPTDLKFTQVTPTSLSAQWTPPNVQLTGYRVRVTPKEKTGPMKEINLAPDSSSVVVSGLMVATKYEVSVYALKDTLTSRPAQGVVTTLENVSPPRRARVTDATETTITISWRTKTETITGFQVDAVPANGQTPIQRTIKPDVRSYTITGLQPGTDYKIYLYTLNDNARSSPVVIDASTAIDAPSNLRFLATTPNSLLVSWQPPRARITGYIIKYEKPGSPPREVVPRPRPGVTEATITGLEPGTEYTIYVIALKNNQKSEPLIGRKKTDELPQLVTLPHPNLHGPEILDVPST
modifications: Fibronectin fragment named H296-H296

How the values were obtained:
γδ T cells [1] = assay: Expansion of γδ T cell population using pamidronate or IPP (Example 1); type: cell-based; details: human PBMCs, IL-2 20 U/mL, immobilized FN fragment, day 14
Description: Apheresis was performed, or 50 mL blood was collected from human healthy donor obtained with informed consent. The collected blood was then diluted 2-folds with phosphate buffered saline (manufactured by NEXELL or SIGMA, hereinafter referred to as “PBS”), overlaid on Ficoll-paque (manufactured by GE Healthcare Bio-Science), and centrifuged at 600×g for 20 minutes. Peripheral blood mononuclear cells (hereinafter referred to as “PBMCs”) in an intermediate layer were collected with a pipette, and washed. The collected PBMCs were suspended in a storage solution composed of 90% (v/v) FBS (manufactured by MP Biomedicals, LLC)/10% (v/v) DMSO (manufactured by SIGMA), or a storage solution composed of equivolumes of CP-1 (manufactured by KYOKUTO PHARMACEUTICAL INDUSTRIAL CO., LTD.) containing 8% (w/v) human serum albumin (name of formulation: Buminate, manufactured by Baxter Limited, hereinafter referred as to “HSA”) and an RPMI 1640 medium (manufactured by SIGMA), and stored in liquid nitrogen. During expansion of γδ T cells, these stored PBMCs were rapidly melted in water bath at 37° C., and washed with RPMI 1640 medium containing 10 μg/mL DNase (manufactured by Calbiochem), 10% (v/v) human AB serum (manufactured by Cambrex), 2 mM L-glutamine (manufactured by Cambrex), and 100 μg/mL streptomycin sulfate (manufactured by MEIJI SEIKA KAISHA, LTD.) (hereinafter referred to as “10HRPMI+L-Gln”) or Iscove's Modified Dulbecco's Medium (IMDM) (manufactured by Invitrogen) containing 10 μg/mL DNase and 10% (v/v) human AB serum (hereinafter referred to as “10HIMDM”). Thereafter, the number of live cells was calculated by trypan blue staining method. The cells were subjected to each experiment.
A fibronectin fragment (hereinafter referred to as a “FN fragment”) (CH-296 and H296-H296) was immobilized on a culture equipment used in the following experiment. Concretely, a buffer having a pH of 5.0 composed of 2.20% (w/v) sodium citrate dihydrate, 0.80% (w/v) citric acid monohydrate and 2.20% (w/v) glucose (all manufactured by Nakalai Tesque Inc.) (hereinafter referred to as “ACD-A solution (pH 5.0)”), containing CH-296 (final concentration: 25 μg/mL) or H296-H296 (final concentration: 3 μg/mL), was added to a 24-well cell culture plate (manufactured by Becton Dickinson or Corning), in a volume of 240 μL each.
These culture equipments was incubated for 5 hours or more at room temperature. Immediately before use, the ACD-A solution (pH 5.0) containing CH-296 or H296-H296 was removed by aspiration from these culture equipments, and thereafter each well was washed with twice PBS, and then once with RPMI 1640 medium, and the culture equipments were subjected to each experiment. As a control, a plate to which nothing was immobilized was used.
PBMCs prepared in Example 1-(1) were suspended in 10HRPMI+L-Gln or 10HIMDM so as to have a concentration of 1×10^6 cells/mL, to prepare a cell suspension. Thereafter, the above-mentioned cell suspension was added to a plate to which nothing was immobilized or a plate immobilized with CH-296 or H296-H296, prepared in Example 1-(2), in a volume of 1 mL/well each. […]

γδ T cells [2] = assay: Expansion of γδ T cell population cultured using pamidronate (Example 2); type: cell-based; details: human PBMCs; IMDM; stimulant pamidronate 5 μM; IL-2 100 U/mL; immobilized FN fragment; day 14
Description: PBMCs prepared in Example 1-(1) were suspended in IMDM containing 0.25% (w/v) HSA, so as to have a concentration of 2×10^6 cells/mL, to prepare a cell suspension. Thereafter, the above-mentioned cell suspension was added to a plate to which nothing was immobilized or a plate immobilized with H296-H296, prepared in Example 1-(2), in a volume of 1 mL/well each. Pamidronate was added to each well so as to have a final concentration of 5 μM. These plates were incubated at 37° C. in 5% CO2 (zeroth day of culture). On the second day from the initiation of culture, IL-2 was added to each well so as to have a final concentration of 100 U/mL. […]
The ratio of γδ T cells was analyzed according to flow cytometry for PBMCs prepared in Example 1-(1) and the cells on the fourteenth day from the initiation of culture prepared in Example 2-(1), in the same manner as in Example 1-(4). […]
The number of live cells was counted according to trypan blue staining method for the cells on the fourteenth day from the initiation of culture prepared in Example 2-(1). The expansion fold of γδ T cells was calculated in comparison of the counted number with the number of γδ T cells at the initiation of culture, in the same manner as in Example 1-(5).

[3] = medium 10HRPMI + L-Gln, stimulant pamidronate 5 μM

Row | Molecule | Expansion Fold of γδ T Cells (Folds) Fourteenth Day of Culture (γδ T cells [1]; [3]) | Expansion Fold of γδ T Cells (Folds) Fourteenth Day of Culture (γδ T cells [1]; medium 10HIMDM, stimulant IPP 5 μM) | Expansion Fold of γδ T Cells (Folds) Fourteenth Day of Culture (γδ T cells [1]; medium 10HIMDM, stimulant pamidronate 5 μM) | Expansion Fold of γδ T Cells (Folds) Fourteenth Day of Culture (γδ T cells [1]; medium 10HRPMI + L-Gln, stimulant IPP 5 μM) | Expansion Fold of γδ T Cells (Folds) Fourteenth Day of Culture (γδ T cells [2])
1 | CH-296: polypeptide comprising a cell binding domain, a heparin binding domain and a CS-1 domain of fibronectin (SEQ ID NO: 13) | ×3.85 Folds | – | – | – | –
2 | B1 | ×5.76 Folds | ×4.39 Folds | ×3.18 Folds | ×16.27 Folds | ×101.8 Folds
